Measurements published in paper PMC6277173.
Positions count from the first letter of the chain named.

B1: human anti HIV-1 monoclonal antibody 2F5 IgG (antibody, V domains shown)
VH: RITLKESGPPLVKPTQTLTLTCSFSGFSLSDFGVGVGWIRQPPGKALEWLAIIYSDDDKRYSPSLNTRLTITKDTSKNQVVLVMTRVSPVDTATYFCAHRRGPTTLFGVPIARGPVNAMDVWGQGITVTISS
VL: ALQLTQSPSSLSASVGDRITITCRASQGVTSALAWYRQKPGSPPQLLIYDASSLESGVPSRFSGSGSGTEFTLTISTLRPEDFATYYCQQLHFYPHTFGGGTRVDVR
B2: BM07/vL03 (su3H6 with T94hR, F46lL, Q49lS) (antibody, V domains shown)
VH: EVQLVQSGAEVKKPGATVKISCKVSGYTFTDYFMHWVQQAPGKGLEWMGYINCYTGATNYSQKFKGRVTITADTSTDTAYMELSSLRSEDTAVYYCARTSIGYGSSPPFPYWGQGTLVTVS
VL: ETTLTQSPAFMSATPGDKVNISCITSTDIDDDMNWYQQKPGEAAILIISDGNTLRPGIPPRFSGSGYGTDFTLTINNIESEDAAYYFCLQSDNLPYTFGQGTKLEIK
B3: BM09 (su3H6 with T94hR, Y27hA) (antibody, V domains shown)
VH: B2 VH with Y27A
VL: B2 VL with L46F, S49Q
B4: BM07 (su3H6 with T94hR) (antibody, V domains shown)
VH: B2 VH
VL: B2 VL with L46F, S49Q
B5: BM07/vL01 (su3H6 with T94hR, F46lL) (antibody, V domains shown)
VH: B2 VH
VL: B2 VL with S49Q
B6: BM07/vL02 (su3H6 with T94hR, Q49lS) (antibody, V domains shown)
VH: B2 VH
VL: B2 VL with L46F
B7: mouse antibody Ab2/3H6 (wt3H6) (antibody, V domains shown)
VH: GVQLQQSGPELVKTGASVKISCKASGYSFTDYFMHWVKQSHGKSLDWIGYINCYTGATNYSQKFKGKATFTVDTSSNTAYMQFNSLTSEDSAVYYCARTSIGYGSSPPFPYWGQGTLVTVS
VL: ETTVTQSPASLSMSIGEKVTIRCITSTDIDDDMNWYQQKPGEPPRLLISDGNTLRPGVPSRFSSSGYGTDFVFTIENMLSEDVADYYCLQSDNLPYTFGGGTNLEIK

How the values were obtained:
[1] = target: BM07/vL02 (su3H6 with T94hR, Q49lS); test: BLI; protein A bio-assay (Octet QKe): Ab2/3H6 variants captured from concentrated culture supernatants on protein A biosensors, blocked with an unspecific scFv-Fc antibody, association and dissociation of 2F5 IgG measured; kinetics buffer; KD averaged
[2] = target: BM09 (su3H6 with T94hR, Y27hA); test: as above
[3] = target: BM07/vL01 (su3H6 with T94hR, F46lL); test: as above
[4] = target: BM07/vL03 (su3H6 with T94hR, F46lL, Q49lS); test: as above
BM07 (su3H6 with T94hR) = test: as above
[5] = target: human anti HIV-1 monoclonal antibody 2F5 IgG (human); test: BLI; streptavidin bio-assay (Octet QKe): biotinylated 2F5 IgG loaded on streptavidin biosensors, association and dissociation of purified Ab2/3H6 variants; kinetics buffer; KD averaged over different Ab2/3H6 concentrations

| Binder | Kd [5] [nM] | further results |
| --- | --- | --- |
| B1 | – | Kd [1]: 95 nM; Kd [2]: 39000 nM; Kd [3]: 22 nM; Kd [4]: 21 nM; Kd (BM07 (su3H6 with T94hR)): 170 nM |
| B2 | 29 | – |
| B3 | 8300 | – |
| B4 | 330 | – |
| B5 | 28 | – |
| B6 | 59 | – |
| B7 | 35 | – |
